For the experiment, the target named is T1, Biotinylated hPK (Homo sapiens, UniProt P03952).
T1 construct: IHPKA, from human plasma; purchased Innovative Research, Novi, MI, USA IHPKA; host or cells: human plasma
In words: Phage selections, abundance of sequences in selection outputs. The class given is binding. Particulars: for Frequency (relative abundance in the total selection outputs): randomised WPAR motif at positions 2, 3, 4 & 5 within the 06-34-03 sequence. Here is the method: Glycerol stocks of phage libraries were diluted to OD600=0.1 in 500 ml 2YT/chloramphenicol (30 μg/ml) cultures and phage were produced at 30° C. over night (15-16 hrs). Phage were purified and chemically modified as described in Heinis, et al., Nat Chem Biol 2009, 5 (7), 502-7 Biotinylated hPK (3 μg) (IHPKA, from human plasma, Innovative Research, Novi, MI, USA) was incubated with 50 μl pre-washed magnetic streptavidin beads (Dynal, M-280 from Invitrogen, Paisley, UK) for 10 minutes at RT. […] Blocked beads were then mixed with the blocked chemically modified phage and incubated for 30 minutes on a rotating wheel at RT. Beads were washed 8 times with washing buffer containing 0.1% Tween 20 and twice with washing buffer before incubation with 100 μl of 50 mM glycine, pH 2.2 for 5 minutes. Eluted phage were transferred to 50 μl of 1 M Tris-Cl, pH 8 for neutralization, incubated with 30 ml TG1 cells at OD600=0.4 for 90 minutes at 37° C. and the cells were plated on large 2YT/chloramphenicol plates. One or two additional rounds of panning were performed using the same procedures. In the second round of selection, neutravidin-coated magnetic beads were used to prevent the enrichment of streptavidin-specific peptides. The neutravidin beads were prepared by reacting 0.8 mg neutravidin (Pierce, Rockford, IL, USA) with 0.5 ml tosyl-activated magnetic beads (Dynal, M-280 from Invitrogen, Paisley, UK) according to the supplier's instructions.
The WPAR (SEQ ID NO: 18) motif identified from Example 1 was analysed in the context of the 06-34-03 peptide, in order to identify alternatives or improvements to the WPAR (SEQ ID NO: 18) motif. A library was constructed where positions 1, 6, 7, 8, 9 &10 of 06-34-03 were fixed and positions 2, 3, 4 & 5 were randomised (see ‘Randomisation of peptide domains—Library construction’ in Methods above). Selections against human plasma Kallikrein were performed at a variety of stringencies (see Phage selections' in Methods above). All output sequences were identified and analysed for target binding (see ‘Randomisation of peptide domains—Assay of binding of individual clones’ in Methods above). Table 17 lists each unique sequence, its relative abundance in the selection output (frequency), and a rank number according to target binding strength.

Setting [1] is: 2nd stringency from High (1st value of cell).
Setting [2] is: 3rd stringency from High (2nd value of cell).
[3] abbreviates: 4th stringency from High (3rd value of cell).
Setting [4] is: 5th stringency from High (4th value of cell).

The record followed here is patent US11912794B2, “Modulation of structured polypeptide specificity” (BicycleRD Limited, priority 2011, dated 2024).

Ends that are not written are not given here.

T1 sequence (P03952 20-638): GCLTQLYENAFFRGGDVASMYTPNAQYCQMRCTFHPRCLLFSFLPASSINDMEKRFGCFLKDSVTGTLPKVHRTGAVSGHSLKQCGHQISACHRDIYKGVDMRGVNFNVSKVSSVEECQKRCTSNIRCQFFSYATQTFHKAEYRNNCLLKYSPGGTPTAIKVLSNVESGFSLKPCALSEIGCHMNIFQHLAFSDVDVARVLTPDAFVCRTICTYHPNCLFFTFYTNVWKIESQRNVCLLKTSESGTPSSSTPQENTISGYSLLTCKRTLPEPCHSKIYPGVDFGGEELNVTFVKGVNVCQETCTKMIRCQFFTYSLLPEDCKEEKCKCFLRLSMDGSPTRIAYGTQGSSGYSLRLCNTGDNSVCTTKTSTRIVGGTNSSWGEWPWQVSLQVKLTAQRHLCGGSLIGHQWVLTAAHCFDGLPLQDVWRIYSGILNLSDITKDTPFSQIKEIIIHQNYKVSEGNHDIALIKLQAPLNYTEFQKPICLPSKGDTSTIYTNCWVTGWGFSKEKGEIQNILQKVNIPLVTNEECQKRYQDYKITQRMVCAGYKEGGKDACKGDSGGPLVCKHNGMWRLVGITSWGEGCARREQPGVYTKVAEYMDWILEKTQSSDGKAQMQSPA

“SEQ ID NO: 98 (CSYPYRCTHQDLC; Synthetic sequence Kallikrein binder identified from selections using a randomised WPAR motif at positions 2, 3, 4 & 5 within the 06-34-03 sequence of PCT/EP2012/069898 (SEQ ID NO 58))”: the “Frequency (relative abundance in the total selection outputs)” value worked out at 2. Still for that read-out and setting: under “SEQ ID NO: 99 (CSWWARCTHQDLC; Synthetic sequence Kallikrein binder identified from selections using a randomised WPAR motif at positions 2, 3, 4 & 5 within the 06-34-03 sequence of PCT/EP2012/069898 (SEQ ID NO 58))” stands 1. Still for that read-out and setting: under “SEQ ID NO: 100 (CSWPYKCTHQDLC; Synthetic sequence Kallikrein binder identified from selections using a randomised WPAR motif at positions 2, 3, 4 & 5 within the 06-34-03 sequence of PCT/EP2012/069898 (SEQ ID NO 58))” stands 1.

As for “SEQ ID NO: 101 (CSFLYKCTHQDLC; Synthetic sequence Kallikrein binder identified from selections using a randomised WPAR motif at positions 2, 3, 4 & 5 within the 06-34-03 sequence of PCT/EP2012/069898 (SEQ ID NO 58))”, the “Frequency (relative abundance in the total selection outputs)” value was 2. On the same count and under the same terms, under “SEQ ID NO: 102 (CSLPIRCTHQDLC; Synthetic sequence Kallikrein binder identified from selections using a randomised WPAR motif at positions 2, 3, 4 & 5 within the 06-34-03 sequence of PCT/EP2012/069898 (SEQ ID NO 58))” stands 1; under “SEQ ID NO: 103 (CSMPYRCTHQDLC; Synthetic sequence Kallikrein binder identified from selections using a randomised WPAR motif at positions 2, 3, 4 & 5 within the 06-34-03 sequence of PCT/EP2012/069898 (SEQ ID NO 58))”, 2; under “SEQ ID NO: 104 (CSIPFKCTHQDLC; Synthetic sequence Kallikrein binder identified from selections using a randomised WPAR motif at positions 2, 3, 4 & 5 within the 06-34-03 sequence of PCT/EP2012/069898 (SEQ ID NO 58))”, 1. Still for that read-out and setting: with “SEQ ID NO: 105 (CSYPWRCTHQDLC; Synthetic sequence Kallikrein binder identified from selections using a randomised WPAR motif at positions 2, 3, 4 & 5 within the 06-34-03 sequence of PCT/EP2012/069898 (SEQ ID NO 58))” the figure was 1; with “SEQ ID NO: 106 (CSFPFWCTHQDLC; Synthetic sequence Kallikrein binder identified from selections using a randomised WPAR motif at positions 2, 3, 4 & 5 within the 06-34-03 sequence of PCT/EP2012/069898 (SEQ ID NO 58))”, 1. Still for that read-out and setting: with “SEQ ID NO: 107 (CSFSYKCTHQDLC; Synthetic sequence Kallikrein binder identified from selections using a randomised WPAR motif at positions 2, 3, 4 & 5 within the 06-34-03 sequence of PCT/EP2012/069898 (SEQ ID NO 58))” the figure was 1. As to “SEQ ID NO: 108 (CSWSYRCTHQDLC; Synthetic sequence Kallikrein binder identified from selections using a randomised WPAR motif at positions 2, 3, 4 & 5 within the 06-34-03 sequence of PCT/EP2012/069898 (SEQ ID NO 58))”, the “Frequency (relative abundance in the total selection outputs)” value amounted to 1.

Consider “SEQ ID NO: 109 (CSFMYKCTHQDLC; Synthetic sequence Kallikrein binder identified from selections using a randomised WPAR motif at positions 2, 3, 4 & 5 within the 06-34-03 sequence of PCT/EP2012/069898 (SEQ ID NO 58))”, for which the “Frequency (relative abundance in the total selection outputs)” value is on record as 1. On the same count and under the same terms, with “SEQ ID NO: 110 (CSQVVGCTHQDLC; Synthetic sequence Kallikrein binder identified from selections using a randomised WPAR motif at positions 2, 3, 4 & 5 within the 06-34-03 sequence of PCT/EP2012/069898 (SEQ ID NO 58))” the figure was 1; with “SEQ ID NO: 111 (CRWPYHCTHQDLC; Synthetic sequence Kallikrein binder identified from selections using a randomised WPAR motif at positions 2, 3, 4 & 5 within the 06-34-03 sequence of PCT/EP2012/069898 (SEQ ID NO 58))”, 1. The same measure, in the same setting: with “SEQ ID NO: 112 (CSLFDHCTHQDLC; Synthetic sequence Kallikrein binder identified from selections using a randomised WPAR motif at positions 2, 3, 4 & 5 within the 06-34-03 sequence of PCT/EP2012/069898 (SEQ ID NO 58))” the figure was 1; with “SEQ ID NO: 113 (CSHRRWCTHQDLC; Synthetic sequence Kallikrein binder identified from selections using a randomised WPAR motif at positions 2, 3, 4 & 5 within the 06-34-03 sequence of PCT/EP2012/069898 (SEQ ID NO 58))”, 1; with “SEQ ID NO: 114 (CSWQARCTHQDLC; Synthetic sequence Kallikrein binder identified from selections using a randomised WPAR motif at positions 2, 3, 4 & 5 within the 06-34-03 sequence of PCT/EP2012/069898 (SEQ ID NO 58))”, 1. For “WPFR: phage clone: WPFR at positions 2-5 within the 06-34-03 sequence, TBMB-cyclised (also: TBMB-cyclised within the 06-34-03 context, the cysteines lie outside this motif)”, the “Relative abundance of motif in selection output” value is, setting by setting: under setting [1], 3%; under setting [2], 0%; under setting [3], 0%; under setting [4], 6%; (stringency High) 7%; (stringency LOW) 4%. Take “WPSR: phage clone: WPSR at positions 2-5 within the 06-34-03 sequence, TBMB-cyclised (also: TBMB-cyclised within the 06-34-03 context, the cysteines lie outside this motif)”: the “Relative abundance of motif in selection output” value reads like this: under setting [1], 31%; under setting [2], 41%; under setting [3], 26%; under setting [4], 23%; (stringency High) 34%; (stringency LOW) 11%. Regarding “WPYR: phage clone: WPYR at positions 2-5 within the 06-34-03 sequence, TBMB-cyclised (also: TBMB-cyclised within the 06-34-03 context, the cysteines lie outside this motif)”, the “Relative abundance of motif in selection output” value by setting is: under setting [1], 3%; under setting [2], 0%; under setting [3], 4%; under setting [4], 0%; (stringency High) 3%; (stringency LOW) 0%.
